In patent publication US20250195679A1, “ANTIBODY-DRUG CONJUGATE AND USE THEREOF” (SHANGHAI HUAOTA BIOPHARMACEUTICAL CO., LTD., priority 2022, published 2025):

What was measured:
[1] = target: T1, human CD73 (CHOK1-huCD73-3F4 cells) (Homo sapiens, UniProt P21589); test: Cell binding activity to human CD73 antigen expressed on membrane (flow cytometry); format: cell-based; details: FACS, FIG. 2
T1 construct: host or cells: CHOK1-huCD73-3F4 (CHO-K1 clone)
T1 sequence (P21589 27-549): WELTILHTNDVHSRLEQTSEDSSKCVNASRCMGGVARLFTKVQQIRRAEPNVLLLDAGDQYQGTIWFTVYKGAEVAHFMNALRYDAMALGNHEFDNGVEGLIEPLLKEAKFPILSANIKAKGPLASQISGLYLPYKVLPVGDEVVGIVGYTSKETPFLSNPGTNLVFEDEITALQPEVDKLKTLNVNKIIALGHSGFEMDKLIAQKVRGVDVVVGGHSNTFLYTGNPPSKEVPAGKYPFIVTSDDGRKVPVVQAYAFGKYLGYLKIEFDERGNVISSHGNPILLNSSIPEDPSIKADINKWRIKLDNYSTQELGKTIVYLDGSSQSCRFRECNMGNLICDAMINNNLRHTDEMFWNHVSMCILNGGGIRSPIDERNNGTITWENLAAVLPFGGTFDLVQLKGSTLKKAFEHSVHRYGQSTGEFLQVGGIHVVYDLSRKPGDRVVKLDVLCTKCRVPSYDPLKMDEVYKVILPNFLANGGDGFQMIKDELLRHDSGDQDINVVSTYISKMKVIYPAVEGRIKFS
Description: The binding activity of the antibody-drug conjugate 1 and the antibody-drug conjugate 2 prepared in Example 1 and the 900698 naked antibody to cells expressing human CD73 (CHOK1-huCD73-3F4, Huabo Biopharm) was assayed.
All antigen-binding proteins were diluted to 30 μg/mL with a solution of 1% BSA in PBS (1% BSA/PBS), followed by a 3-fold dilution across 10 gradients. The diluted proteins were each added at 20 μL per well to a 96-well U-bottom plate, with a negative control (adding only 1% BSA/PBS) set up simultaneously. A suspension of cells expressing human CD73 (CHOK1-huCD73-3F4, Huabo Biopharm) in the logarithmic growth phase was taken and centrifuged (1000 rpm×5 min), and then the culture medium was discarded. The cells were resuspended in 1% BSA/PBS until the viable cell density was 1×10^6 cells/mL, then added at 20 μL (2×10^4 cells) per well to the 96-well U-bottom plate containing the anti-CD73 antigen-binding proteins, and incubated at room temperature for reaction for 30 min. The reacted cells in the 96-well U-bottom plate were resuspended in 1% BSA/PBS and centrifuged (300 g×3 min), and then the supernatant was discarded. This washing process was performed once. Then, a 1:200 dilution of PE-goat anti-human-Fc (Jackson ImmunoResearch, #109-115-098) was added, and the cells were incubated in the dark at room temperature for reaction for 15 min. The reacted cells in the 96-well U-bottom plate were further resuspended in 1% BSA/PBS and centrifuged (300 g×3 min), and then the supernatant was discarded. This washing process was performed 3 times. Finally, the cells were resuspended in 100 μL of 1% BSA/PBS per well, and the fluorescence intensity in the PE channel was detected using a flow cytometer (BD, #Canto II).
The results for the binding activity of the antibody-drug conjugate 1, the antibody-drug conjugate 2, and the 900698 naked antibody are shown in FIG. 2 (represented as 1-3 in FIG. 2, respectively).

[2] = target: T2, Human CD73 (Homo sapiens, UniProt P21589); test: Inhibition of enzymatic activity of soluble recombinant CD73 protein (AMP/ATP, CellTiter-Glo); format: biochemical; set-up: purchased ACRO CD3-H52H7-100 μg; details: FIG. 3; the three samples compared with each other
T2 sequence (P21589 27-547 limits assumed): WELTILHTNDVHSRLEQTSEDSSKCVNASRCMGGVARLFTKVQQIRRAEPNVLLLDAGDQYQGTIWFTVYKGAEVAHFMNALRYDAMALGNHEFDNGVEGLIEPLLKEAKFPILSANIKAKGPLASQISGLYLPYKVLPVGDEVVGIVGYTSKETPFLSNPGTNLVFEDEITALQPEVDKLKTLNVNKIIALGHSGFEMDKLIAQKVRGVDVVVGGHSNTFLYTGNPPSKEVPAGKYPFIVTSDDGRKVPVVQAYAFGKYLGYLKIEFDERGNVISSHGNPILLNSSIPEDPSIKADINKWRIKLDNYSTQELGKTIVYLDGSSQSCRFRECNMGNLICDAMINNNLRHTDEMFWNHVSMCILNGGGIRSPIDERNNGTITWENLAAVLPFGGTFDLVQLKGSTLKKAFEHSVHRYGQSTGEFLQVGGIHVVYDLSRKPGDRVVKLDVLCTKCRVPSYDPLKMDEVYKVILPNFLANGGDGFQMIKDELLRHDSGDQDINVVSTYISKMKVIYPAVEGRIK
Description: The inhibitory effects of the antibody-drug conjugate 1 and the antibody-drug conjugate 2 prepared in Example 1 and the 900698 naked antibody on the enzymatic activity of a recombinant CD73 protein (ACRO, #CD3-H52H7-100 μg) were assayed. The specific procedures were as follows: The series of CD73 antigen-binding proteins were diluted to 120 μg/mL with TM Buffer (ROCKLAND, #MB-059), followed by a 3-fold dilution across 10 gradients. The diluted proteins were each added at 25 µL/well to a 96-well plate. The recombinant CD73 protein was then diluted to 0.3 μg/mL with TM Buffer (ROCKLAND, #MB-059) and added at 25 μL/well to the 96-well plate. The mixture was mixed uniformly. Then, diluted AMP and ATP were mixed at a ratio of 1:1, and the mixture was added at 50 μL/well to the above 96-well plate. The resulting mixture was allowed to react for 15 min. Finally, a CellTiter-Glo® substrate was added to a CellTiter-Glo® buffer. The mixture was mixed uniformly and equilibrated to room temperature, and then added at 100 μL/well to the wells to be tested. The resulting mixture was allowed to react at room temperature for 10 min and then subjected to full-wavelength detection.
The results for the inhibition of the enzymatic activity of the soluble recombinant CD73 antigen protein (ACRO, #CD3-H52H7-100 μg) by the antibody-drug conjugate 1, the antibody-drug conjugate 2, and the 900698 naked antibody are shown in FIG. 3 (represented as 1-3 in FIG. 3, respectively).

Row | Molecule | binding activity (affinity) for cells expressing human CD73 [1] | inhibitory effect on the enzymatic activity of the soluble recombinant CD73 protein [2]
1 | Antibody-drug conjugate 1: 900698 antibody cysteine-conjugated to SN-38 via Mc-VC-PAB-DMEDA-PEG linker, DAR about 7.8 (conjugate) VH: QVQLVESGGGLVKPGGSLRLSCAASGFTFSKYAMSWIRQAPGKGLEWVAEISSGGGYINYADSVKGRFTISRDNAKNSLYLQMNSLRAEDTAVYYCARAIYYYGSSYNYYAMDYWGQGTTVTVSS VL: DIQMTQSPSSLSASVGDRVTITCRASQDVGTAEAWYQQKPGKAPKLLIYWASTRHTGVPSRFSGSGSGTDFTLTISSLQPEDFATYYCQQYSSYPLTFGQGTKLEIK | good affinity | comparable inhibitory effects
2 | Antibody-drug conjugate 2: 900698 antibody cysteine-conjugated to SN-38 via MP2-VC-PAB-DMEDA-PEG linker, DAR about 7.8 (conjugate) VH: QVQLVESGGGLVKPGGSLRLSCAASGFTFSKYAMSWIRQAPGKGLEWVAEISSGGGYINYADSVKGRFTISRDNAKNSLYLQMNSLRAEDTAVYYCARAIYYYGSSYNYYAMDYWGQGTTVTVSS VL: DIQMTQSPSSLSASVGDRVTITCRASQDVGTAEAWYQQKPGKAPKLLIYWASTRHTGVPSRFSGSGSGTDFTLTISSLQPEDFATYYCQQYSSYPLTFGQGTKLEIK | good affinity | comparable inhibitory effects
3 | 900698: anti-CD73 antibody, VH SEQ ID NO: 35, VL SEQ ID NO: 34 (antibody, V domains shown, 900696, 900698 (VH); 900695, 900698 (VL)) VH: QVQLVESGGGLVKPGGSLRLSCAASGFTFSKYAMSWIRQAPGKGLEWVAEISSGGGYINYADSVKGRFTISRDNAKNSLYLQMNSLRAEDTAVYYCARAIYYYGSSYNYYAMDYWGQGTTVTVSS VL: DIQMTQSPSSLSASVGDRVTITCRASQDVGTAEAWYQQKPGKAPKLLIYWASTRHTGVPSRFSGSGSGTDFTLTISSLQPEDFATYYCQQYSSYPLTFGQGTKLEIK | good affinity | comparable inhibitory effects
